Experimental data as given in US20140087995A1 (published 2014).
Blank lines part the entries; values can stand above or below the binder they belong to. Numbered stars: 1 amine (or outer) side, 2 acyl side, 3 side chain; on linkers, the order of the positions; unused ones are H or OH. Bridge positions count the residues as written; N and C are the ends. Side chains are listed from the residue outwards. Ends that are not written are not given here. * marks the point of attachment. C20 diacid = O=C(O)CCCCCCCCCCCCCCCCCCC(=O)*; γGlu = O=C(O)[C@H](CCC(=O)[*:2])N[*:1]; AEEA = NCCOCCOCC(=O)O

Biological target: T1, human amylin receptor (human, UniProt P30988 25-474; O60896 24-148, limits assumed)
T1 construct: whole, on cells; Calcitonin receptor plus RAMP-3 gives the amylin 3(a) receptor; membranes of Amylin 3(a)/CRE-luc cells were used; also called hAmylin-R; hAmylinR
T1 sequence (looked up) 1: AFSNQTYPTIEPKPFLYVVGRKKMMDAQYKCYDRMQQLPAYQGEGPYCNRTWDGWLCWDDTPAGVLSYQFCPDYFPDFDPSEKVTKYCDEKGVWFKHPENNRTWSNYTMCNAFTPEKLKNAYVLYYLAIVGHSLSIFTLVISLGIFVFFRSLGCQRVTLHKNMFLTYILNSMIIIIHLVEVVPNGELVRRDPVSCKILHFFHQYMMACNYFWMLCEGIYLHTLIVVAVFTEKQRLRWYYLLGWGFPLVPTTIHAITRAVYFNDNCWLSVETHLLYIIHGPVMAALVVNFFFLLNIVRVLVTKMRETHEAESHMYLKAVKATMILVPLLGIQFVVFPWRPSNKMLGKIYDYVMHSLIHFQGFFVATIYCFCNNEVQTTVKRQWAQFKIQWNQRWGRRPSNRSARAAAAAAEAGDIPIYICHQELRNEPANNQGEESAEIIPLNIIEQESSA
T1 sequence (looked up) 2: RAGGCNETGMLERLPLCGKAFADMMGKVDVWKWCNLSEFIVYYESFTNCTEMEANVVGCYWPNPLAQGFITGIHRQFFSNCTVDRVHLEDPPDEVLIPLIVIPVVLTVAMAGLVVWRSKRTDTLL
Test: SPA competition binding, displacement of 125I-rat amylin from membranes with human amylin 3(a) receptor (Assay V)
Procedure, shortened: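 One-site competition analysis of SPA counts yielded IC₅₀ as a measure of affinity. Membranes were at 35 ng/μL final; incubation was 120 min at 25° C, pH 7.4.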

- IC50: 0.403 nM
B1: N{Alpha-1}-[(4S)-4-carboxy-4-(19-carboxynonadecanoylamino)butanoyl]-[Glu14,Arg17,Pro21,Pro27,Lys34]-h-amylin (peptide)
peptide: {C20 diacid-γGlu}-KCNTATCATQRLAEFLRHSSPNFGAIPSSTNVGKNTY-NH2
modifications: disulfide 2-7
SMILES: CC[C@H](C)[C@H](NC(=O)[C@H](C)NC(=O)CNC(=O)[C@H](Cc1ccccc1)NC(=O)[C@H](CC(N)=O)NC(=O)[C@@H]1CCCN1C(=O)[C@H](CO)NC(=O)[C@H](CO)NC(=O)[C@H](Cc1c[nH]cn1)NC(=O)[C@H](CCCNC(=N)N)NC(=O)[C@H](CC(C)C)NC(=O)[C@H](Cc1ccccc1)NC(=O)[C@H](CCC(=O)O)NC(=O)[C@H](C)NC(=O)[C@H](CC(C)C)NC(=O)[C@H](CCCNC(=N)N)NC(=O)[C@H](CCC(N)=O)NC(=O)[C@@H](NC(=O)[C@H](C)NC(=O)[C@@H]1CSSC[C@H](NC(=O)[C@H](CCCCN)NC(=O)CC[C@H](NC(=O)CCCCCCCCCCCCCCCCCCC(=O)O)C(=O)O)C(=O)N[C@@H](CC(N)=O)C(=O)N[C@@H]([C@@H](C)O)C(=O)N[C@@H](C)C(=O)N[C@@H]([C@@H](C)O)C(=O)N1)[C@@H](C)O)C(=O)N1CCC[C@H]1C(=O)N[C@@H](CO)C(=O)N[C@@H](CO)C(=O)N[C@H](C(=O)N[C@@H](CC(N)=O)C(=O)N[C@H](C(=O)NCC(=O)N[C@@H](CCCCN)C(=O)N[C@@H](CC(N)=O)C(=O)N[C@H](C(=O)N[C@@H](Cc1ccc(O)cc1)C(N)=O)[C@@H](C)O)C(C)C)[C@@H](C)O
notes: also called 14E, 17R, 21P, 27P, 34K

- IC50: 0.427 nM
B2: N^ε1-[2-[2-[2-[[(4S)-4-carboxy-4-(19-carboxynonadecanoylamino)butanoyl]amino]ethoxy]ethoxy]acetyl]-[Arg17,Pro21,Pro27]-h-amylin (peptide)
peptide: K([AEEA-γGlu-C20 diacid])CNTATCATQRLANFLRHSSPNFGAIPSSTNVGSNTY-NH2
modifications: disulfide 2-7; N-terminus assumed
SMILES: CC[C@H](C)[C@H](NC(=O)[C@H](C)NC(=O)CNC(=O)[C@H](Cc1ccccc1)NC(=O)[C@H](CC(N)=O)NC(=O)[C@@H]1CCCN1C(=O)[C@H](CO)NC(=O)[C@H](CO)NC(=O)[C@H](Cc1c[nH]cn1)NC(=O)[C@H](CCCNC(=N)N)NC(=O)[C@H](CC(C)C)NC(=O)[C@H](Cc1ccccc1)NC(=O)[C@H](CC(N)=O)NC(=O)[C@H](C)NC(=O)[C@H](CC(C)C)NC(=O)[C@H](CCCNC(=N)N)NC(=O)[C@H](CCC(N)=O)NC(=O)[C@@H](NC(=O)[C@H](C)NC(=O)[C@@H]1CSSC[C@H](NC(=O)[C@@H](N)CCCCNC(=O)COCCOCCNC(=O)CC[C@H](NC(=O)CCCCCCCCCCCCCCCCCCC(=O)O)C(=O)O)C(=O)N[C@@H](CC(N)=O)C(=O)N[C@@H]([C@@H](C)O)C(=O)N[C@@H](C)C(=O)N[C@@H]([C@@H](C)O)C(=O)N1)[C@@H](C)O)C(=O)N1CCC[C@H]1C(=O)N[C@@H](CO)C(=O)N[C@@H](CO)C(=O)N[C@H](C(=O)N[C@@H](CC(N)=O)C(=O)N[C@H](C(=O)NCC(=O)N[C@@H](CO)C(=O)N[C@@H](CC(N)=O)C(=O)N[C@H](C(=O)N[C@@H](Cc1ccc(O)cc1)C(N)=O)[C@@H](C)O)C(C)C)[C@@H](C)O
notes: also called 17R, 21P, 27P
